From PMC3198853

Target: LDLRs
Test: SPR

Kd: 330 nM
Substance: Tissue-type plasminogen activator (recombinant human tPA, Actilyse) (enzyme)
